The test concerns the target recombinant biotinylated SARS-CoV-2 spike RBD, wild type (SARS-CoV-2) (UniProt P0DTC2). Nature of the test: BLI. Particulars: bispecific antibody.

As usually defined, the Kd is the free concentration of one partner at which half of the binding sites on the other are occupied at equilibrium, for simple one-to-one binding. Consider “bispecific antibody BI-1C2C (IgG-ScFv format, from mAbs 13-1C and 6-2C) (from UniProt P01857)”, for which the Kd is 2.16 nM.
Turning to “bispecific antibody BI-2C1C (IgG-ScFv format, from mAbs 6-2C and 13-1C) (from UniProt P01857)”, the Kd turned out to be 1.04 nM.
For the substance “bispecific antibody BI-2C5B (IgG-ScFv format: 6-2C IgG with 10-5B ScFv) (from UniProt P01857)”, the Kd is 4.71 nM.
With “bispecific antibody BI-5B2C (IgG-ScFv format: 10-5B IgG with 6-2C ScFv) (from UniProt P01857)”, the Kd worked out at 4.89 nM.

The record behind these values is article PMC10107573.
